Reference: the supplement of paper PMC9732359
± gives the uncertainty stated by the source.

Test: protein stability index of a GFP-peptide fusion (yeast GPS) (PSI 1-4); higher = more stable; sorted into four equal gates, so the index is relative within each strain
Outline: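 Tiled 17-residue yeast protein peptides were fused downstream of GFP in a plasmid that also expresses Cherry, and the pooled library was carried in yeast. Mid-log cultures in leucine-free medium were sorted into four equal gates by GFP/Cherry fluorescence ratio, and plasmids from each gate were PCR-amplified and Illumina-sequenced, with reads assigned to strains by barcodes. The protein stability index for each peptide was each gate's read frequency times its gate number, summed.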

Row | Sequence | protein stability index (doa10∆) | protein stability index (pdr5∆) | protein stability index (san1∆) | protein stability index (ubr1∆)
1 | VRKETYSSYIYKVLKQT [HTB2] | 3.08 ± 0.074 | 3.26 ± 0.065 | 3.24 ± 0.051 | 3.12 ± 0.038
2 | VEECPQYIRTLVSEART [SSN8] | 1.67 ± 0.1 | 1.7 ± 0.1 | 1.6 ± 0.14 | 1.87 ± 0.061
3 | SATSTTEQTKSKNPLSL [YLR335W/NUP2] | 2.95 ± 0.04 | 3.01 ± 0.047 | 2.58 ± 0.055 | 2.96 ± 0.044
4 | ISKHSKQAIYTRATASE [RPS25A] | 1.98 ± 0.056 | 2.03 ± 0.045 | 1.97 ± 0.072 | 1.85 ± 0.039
5 | NVSFVLPDEKSDAMSID [YCG1] | 3.31 ± 0.072 | 3.3 ± 0.051 | 3.25 ± 0.052 | 3.21 ± 0.067
6 | FNYQGDELVLNFENDNE [REC8] | 2.9 ± 0.18 | 3.25 ± 0.17 | 2.79 ± 0.11 | 2.63 ± 0.068
7 | LENKENGLLNEISRLKT [SMC2] | 3.31 ± 0.18 | 3.29 ± 0.079 | 3.15 ± 0.094 | 3.18 ± 0.13
8 | NKEMETQRIMTNVIAFA [YLR018C/POM34] | 2.33 ± 0.1 | 2.46 ± 0.07 | 1.99 ± 0.15 | 2.46 ± 0.058
9 | DDFDMLFGENDTSTQAY [NUT1] | 3.42 ± 0.08 | 3.37 ± 0.071 | 3.51 ± 0.053 | 3.2 ± 0.055
10 | ALILADSEIEISSEKLL [RPP1A] | 1.95 ± 0.13 | 1.87 ± 0.11 | 1.94 ± 0.096 | 2.06 ± 0.081
11 | KIEGCISQVSSIHAIGS [RPB7] | 1.9 ± 0.11 | 2.48 ± 0.16 | 2.11 ± 0.1 | 2.17 ± 0.15
12 | MLMPKQERNKIHQYLFQ [RPS10B] | 2.76 ± 0.29 | 2.88 ± 0.17 | 2.89 ± 0.14 | 2.78 ± 0.1
13 | QQQQQQQQQTSPPPQTH [SNF5] | 2.765 ± 0.011 | 2.862 ± 0.011 | 2.799 ± 0.01 | 2.824 ± 0.009
14 | PNGEGSKTWETYEMRIH [RPS20] | 3.09 ± 0.091 | 3.35 ± 0.069 | 3.05 ± 0.095 | 3.33 ± 0.045
15 | VVYHPSNNELVRTNTLT [RPS8A] | 2.647 ± 0.019 | 2.396 ± 0.018 | 2.455 ± 0.019 | 2.647 ± 0.014
16 | EQWLRQFEVSDDEKNDK [SNF2] | 3.41 ± 0.065 | 3.21 ± 0.059 | 3.17 ± 0.053 | 3.09 ± 0.046
17 | NISTNTNIHEPQYINYS [SSN2] | 3.17 ± 0.067 | 2.98 ± 0.078 | 2.74 ± 0.069 | 2.97 ± 0.078
18 | NAEKTGKRQVLLRPSSK [RPS22B] | 3.14 ± 0.064 | 2.93 ± 0.055 | 3.24 ± 0.046 | 2.85 ± 0.038
19 | AKALESLASCLRSTEYS [POP1] | 3.08 ± 0.16 | 3.25 ± 0.14 | 2.8 ± 0.13 | 2.61 ± 0.17
20 | KACKTADKLVNVTQNEQ [SRP68] | 3.02 ± 0.13 | 3.04 ± 0.095 | 3 ± 0.073 | 3.07 ± 0.07

Row | Sequence | protein stability index (doa10∆) | protein stability index (pdr5∆) | protein stability index (san1∆) | protein stability index (ubr1∆)
21 | SSLYEASLNALKESIKN [RPN1] | 3.26 ± 0.1 | 3.1 ± 0.1 | 3.38 ± 0.085 | 3.08 ± 0.065
22 | PKLKRIGLVKCTQMTDE [GRR1] | 2.95 ± 0.073 | 2.89 ± 0.076 | 2.81 ± 0.057 | 2.86 ± 0.047
23 | LKYLDDLKAQFQELDSK [RPN9] | 3.13 ± 0.097 | 3.23 ± 0.069 | 3.12 ± 0.075 | 3.2 ± 0.064
24 | VVIAADTRSTQGPIVAD [PUP1] | 2.65 ± 0.1 | 3.29 ± 0.24 | 2.68 ± 0.19 | 3 ± 0.072
25 | YPEDKKTQQNEKSENGE [RPN3] | – | – | 3.22 ± 0.041 | 3.13 ± 0.12
26 | TERVVEIGPSPTLAGMA [FAS2] | 2.501 ± 0.018 | 2.599 ± 0.017 | 2.496 ± 0.019 | 2.496 ± 0.012
27 | TDNVSMYPSPTGVMIGI [PRP8] | 2.65 ± 0.065 | 2.41 ± 0.063 | 2.02 ± 0.086 | 2.3 ± 0.041
28 | LGTIESAQAETEALLLE [DIS3] | 2.92 ± 0.1 | 3.09 ± 0.092 | 3.18 ± 0.097 | 2.82 ± 0.062
29 | PSVNDFVIGVIIGTFSD [RRP40] | 1.64 ± 0.06 | 2.51 ± 0.07 | 2.15 ± 0.077 | 2.56 ± 0.084
30 | ENMWPFSYQEVEFKLPK [CDC53] | 1.83 ± 0.048 | 2.19 ± 0.058 | 1.34 ± 0.076 | 2.47 ± 0.035
31 | NYHPNASITPYKLVNKN [RPN4] | 1.84 ± 0.063 | 2.38 ± 0.078 | 2.59 ± 0.083 | 2.05 ± 0.068
32 | PSMKKIKIEPSADDDVN [SIR3] | 1.95 ± 0.077 | 2.63 ± 0.1 | 2.75 ± 0.091 | 2.73 ± 0.069
33 | TESVPEPKLFRMRIFAS [RPL20A] | 3.36 ± 0.13 | 3.02 ± 0.18 | 3.02 ± 0.13 | 1.21 ± 0.24
34 | VDENDEVLLAGFGRKGK [RPS23A] | 1.08 ± 0.084 | 1.41 ± 0.076 | 1.15 ± 0.11 | 1.24 ± 0.068
35 | KIIDNPKSFLKKDQSVL [YMR129W/POM152] | 3.06 ± 0.083 | 3.34 ± 0.098 | 3.07 ± 0.071 | 3.2 ± 0.095
36 | AQFTFGKAATAKETHTK [YOR098C/NUP1] | 2.84 ± 0.13 | 2.81 ± 0.17 | 2.84 ± 0.18 | 3.02 ± 0.18
37 | SKVTVPPSKHSTLTLSD [ESC2] | 3.29 ± 0.12 | 3.09 ± 0.13 | 2.9 ± 0.071 | 3.1 ± 0.098
38 | MLGIRSSVKTCFKPMSL [RIP1] | 2.9 ± 0.074 | 3.05 ± 0.079 | 2.83 ± 0.057 | 2.9 ± 0.052
39 | LIKFVDLSRNGRNGSNG [NUT1] | 3.08 ± 0.074 | 3.2 ± 0.099 | 3.15 ± 0.068 | 3.2 ± 0.069
